The values below come from paper doi:10.1101/856021.

Like-named read-outs stand apart in the source and are kept apart here.

Holding throughout (assay): ITC
(In general: In ITC the heat of successive injections is recorded.)

The target in assay [1] is dP75 IBD-containing C-terminus region (residues 209-445) (Drosophila).
Assay [2] addresses PWWP domain of dP75 (residues 8-91) (Drosophila).
The target of assay [3] is dP75 IBD-containing C-terminus region (residues 209-445) (Drosophila). This is another data set of the same source.

By Kd is commonly meant a measure of binding affinity in units of concentration. Higher therefore signals a looser complex. Regarding “Jil-1 peptide from the proximal site (…; residues 984-1004)”, the Kd in assay [1] was determined as 800 nM.

In assay [2], H3K36me3 peptide gave a Kd above 500 µM.

KREENFYGFSK [Jil-1 peptide at the distal site (…; residues 1102-1112)] came in with a Kd in assay [3] of 120 µM.
